Assay: soluble on expression in E. coli; label from the status in PepcDB or PDB records

Soluble on expression in E. coli, soluble:
MKLYNLKDHNEQVSFAQAVTQGLGKNQGLFFPHDLPEFSLTEIDEMLKLDFVTRSAKILSAFIGDEIPQEILEERVRAAFAFPAPVANVESDVGCLELFHGPTLAFKDFGGRFMAQMLTHIAGDKPVTILTATSGDTGAAVAHAFYGLPNVKVVILYPRGKISPLQEKLFCTLGGNIETVAIDGDFDACQALVKQAFDDEELKVALGLNSANSINISRLLAQICYYFEAVAQLPQETRNQLVVSVPSGNFGDLTAGLLAKSLGLPVKRFIAATNVNDTVPRFLHDGQWSPKATQATLSNAMDVSQPNNWPRVEELFRRKIWQLKELGYAAVDDETTQQTMRELKELGYTSEPHAAVAYRALRDQLNPGEYGLFLGTAHPAKFKESVEAILGETLDLPKELAERADLPLLSHNLPADFAALRKLMMNHQ
MATTVQLSDQSLRQLETLAIHTAHLIQPHGLVVVLQEPDLTISQISANCTGILGRSPEDLLGRTLGEVFDSFQIDPIQSRLTAGQISSLNPSKLWARVMGDDFVIFDGVFHRNSDGLLVCELEPAYTSDNLPFLGFYHMANAALNRLRQQANLRDFYDVIVEEVRRMTGFDRVMLYRFDENNHGDVIAEDKRDDMEPYLGLHYPESDIPQPARRLFIHNPIRVIPDVYGVAVPLTPAVNPSTNRAVDLTESILRSAYHCHLTYLKNMGVGASLTISLIKDGHLWGLIACHHQTPKVIPFELRKACEFFGRVVFSNISAQEDTETFDYRVQLAEHEAVLLDKMTTAADFVEGLTNHPDRLLGLTGSQGAAICFGEKLILVGETPDEKAVQYLLQWLENREVQDVFFTSSLSQIYPDAVNFKSVASGLLAIPIARHNFLLWFRPEVLQTVNWGGDPNHAYEATQEDGKIELHPRQSFDLWKEIVRLQSLPWQSVEIQSALALKKAIVNLILRQAEEHHHHHH
MESVAAESAPAPENEHSQETPESNSSVYTTFMKSHRCYDLIPTSSKLVVFDTSLQVKKAFFALVTNGVRAAPLWDSKKQSFVGMLTITDFINILHRYYKSALVQIYELEEHKIETWREVYLQDSFKPLVCISPNASLFDAVSSLIRNKIHRLPVIDPESGNTLYILTHKRILKFLKLFITEFPKPEFMSKSLEELQIGTYANIAMVRTTTPVYVALGIFVQHRVSALPVVDEKGRVVDIYSKFDVINLAAEKTYNNLDVSVTKALQHRSHYFEGVLKCYLHETLEAIINRLVEAEVHRLVVVDEHDVVKGIVSLSDILQALVLTGGEKKP
MPTLTARSVIPPYMLRRIIEHGSLPQRDCALHTLNHVQSLLGNKPLRAPGAKTSTGGEVIRDIYDAENSTQLPGKQVRNEGQASNHDVAVDEAYDYLGVTYDFFWQAFKRNSLDNQGLPLTGSVHYGKEYQNAFWNGQQMVFGDGDGEIFNRFTIAIDVVGHALAHGVTESEAGLIYFQQAGALNESLSDVFGSLVKQFHLKQTADKADWLIGEGLLAKGINGKGLRSMSAPGTAYDDPLLGKDPQPASMKDYIQTKEDNGGVHLNSGIPNRAFYLAATALGGYAWEKAGYIWYDTLCDKALPQDADFATFARTTVKHAEQRFDSKVAQKVQQAWHQVGVA
MGHHHHHHSHAADEEKAARGIAADRLIIGHVARFHEVKNHAFLLKLAAHLKERGIRFQLVLAGDGPLCGEIEEEARQQNLLSDVLFLGTEERIHELMRTFDVFVMPSLYEGLPVVLVEAQASGLPCIISDSITEKVDAGLGLVTRLSLSEPISVWAETIARAAAAGRPKREFIKETLAQ

Soluble on expression in E. coli, not soluble:
MAALRVPLSQQQLEQLKANKKWGEYVEAQAGQKYEHFTSPYKQSMLTVKEWIMPQGLVIYVRTDDGTYPARVVNAGPDNICVRIVKANKSDPEPETQISYDQVIKSTEVLKMEPLKFKWIRKKTDNLYSIEAFQNLSGFFNKKVFELLKKGDFMEYQHDDEPWKCTIVEIIENHNGLIFIRNGLFVRCVHMFSPFCHELGWADKLKETNDERAAGMTYKILIKLENDRDQRVIVDRHIFRNNTISPHRFQDLQVLVYLEEDHFYLAHVKCKTRKTGLTDSYFFQISRGTELVRDSLLSDNKMPVQFHLNDARIFGYRDLERLHFPIDLPDGVQKIEGESNVDAYIRTYCLTDKEKARVPRLNESEKRAMFDRKILSNEIGVHMKHGAMLRDSKFNPTAGSLTPWAGTKCAEVSWFLPSSGRTRNRRADLLAARVVKYTEHIAHLYVARLDKTIYMHVADPRLHPAGFADGVNLPIEYSDAFAKDADIEIQISQLEETLDNLACEQDSTKDQN

— the DeepSol protein solubility set
